Measured values as given in article PMC6239862.

Biological target: Q-PAS1 fragment of PpsR2 (Q-linker and PAS1 domain) fused with mRuby2 (Rhodopseudomonas palustris)
Assay: cross-linking

Work on “Q-PAS1 fragment of PpsR2 (Q-linker and PAS1 domain) fused with mRuby2 (domain or fragment)” yielded a stoichiometry N of 2.
